# Numbering of substitutions follows the chain as printed.
# T1: EphA3/IL-26 interaction (Homo sapiens, UniProt Q9NPH9)
# T1 construct: purchased R&D Systems; host or cells: IL-26 was purchased; EphA3 is endogenous on E0771 cells
# T1 sequence (Q9NPH9 22-171): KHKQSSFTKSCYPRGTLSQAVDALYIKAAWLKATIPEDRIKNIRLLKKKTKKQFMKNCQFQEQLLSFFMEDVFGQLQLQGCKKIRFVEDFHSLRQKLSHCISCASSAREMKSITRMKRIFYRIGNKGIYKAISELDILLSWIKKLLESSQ
# T2: recombinant human IL-26/AK155 monomer, Cat #1375-IL/CF, R&D Systems (human, UniProt Q9NPH9 22-171)
# T2 construct: also called recombinant human IL-26 monomer
# T2 sequence (looked up): T1 sequence (Q9NPH9 22-171)
# T3: IL-26 (Homo sapiens, UniProt Q9NPH9)
# T3 sequence (Q9NPH9 22-171): T1 sequence (Q9NPH9 22-171)
# B1: mouse soluble EphA3: recombinant mouse EphA3 Fc chimeric protein purchased from R&D Systems (protein)
# chain: ELSPQPSNEVNLLDSKTIQGELGWISYPSHGWEEISGVDEHYTPIRTYQVCNVMDHSQNNWLRTNWVPRNSAQKIYVELKFTLRDCNSIPLVLGTCKETFNLYYMESDDHGVKFREHQFTKIDTIAADESFTQMDLGDRILKLNTEIREVGPVNKKGFYLAFQDVGACVALVSVRVYFKKCPFTVKNLAMFPDTVPMDSQSLVEVRGSCVNNSKEEDPPRMYCSTEGEWLVPIGKCTCNAGYEERGFICQACRPGFYKASDGAAKCAKCPPHSSTQEDGSMNCRCENNYFRAEKDPPSMACARPPSAPRNVISNINETSVILDWSWPLDTGGRKDITFNIICKKCGWNVRQCEPCSPNVRFLPRQLGLTNTTVTVTDLLAHTNYTFEIDAVNGVSELSSPPRQYAAVSITTNQAAPSPVMTIKKDRTSRNSISLSWQEPEHPNGIILDYEVKYYQKQEQETSYTILRARGTNVTISSLKPDTTYVFQIRARTAAGYGTNSRKFEFETSPDSFSISGENSH
# modifications: left off: a dimerising Fc or GST
# notes: recombinant mouse EphA3 Fc chimeric protein purchased from R&D Systems
# B2: Ephrin A5: known ligand of EphA3 (protein, UniProt P52803 21-203, looked up)
# Ephrin-A5: QDPGSKAVADRYAVYWNSSNPRFQRGDYHIDVCINDYLDVFCPHYEDSVPEDKTERYVLYMVNFDGYSACDHTSKGFKRWECNRPHSPNGPLKFSEKFQLFTPFSLGFEFRPGREYFYISSAIPDNGRRSCLKLKVFVRPTNSCMKTIGVHDRVFDVNDKVENSLEPADDTVHESAEPSRGEN
# B3: chimeric 69-10 IgG1/kappa antibody (Ch69-10-IgG1) (antibody, V domains shown)
# VH: QVTLKESGPGILKPSQTLSLTCSFSGFSLSTSGMGVGWIRQPSGKGLEWLAHIWWDDDKYYNPSLKSQLTISKDTSRNQVFLKITSVDTADTATYYCVRGGITATHYYAMDYWGQGTSVTVSS
# VL: DIQMTQSPASQSASLGESVTISCLASQTIGTWLSWYQQKPGKSPQLLIYAATSLADGVPSRFSGSGSGTKFSFKISSLQAEDFVSYYCQQLYSSPWTFGGGTKLEIK
# notes: also called clone 1H8
# B4: Ch69-10-IgG1: chimeric 69-10 IgG1/kappa antibody with mouse 69-10 VH and VL and human constant regions (antibody, V domains shown)
# VH: B3 VH
# VL: B3 VL
# B5: Hu69-10A-IgG1/kappa antibody (Hu69-10A-IgG1) (antibody, V domains shown)
# VH: QVTLKESGPALVKPTQTLTLTCTFSGFSLSTSGMGVGWIRQPPGKALEWLAHIWWDDDKYYNPSLKSQLTISKDTSKNQVVLTMTNMDPVDTATYYCVRGGITATHYYAMDYWGQGTTVTVSS
# VL: DIQMTQSPSSLSASVGDRVTITCLASQTIGTWLSWYQQKPGKAPKLLIYAATSLADGVPSRFSGSGSGTKFTFTISSLQPEDIATYYCQQLYSSPWTFGGGTKVEIK
# notes: also called h69-10A; humanized anti-IL-26 antibody Hu69-10A
# B6: Hu69-10B IgG1/kappa antibody (Hu69-10B-IgG1) (antibody, V domains shown)
# VH: B5 VH
# VL: B5 VL with K70D
# notes: also called h69-10B; humanized anti-IL-26 antibody Hu69-10B
# Columns and labels:
# [1] = tested on: E0771 cells; experiment: MTT assay / cell proliferation (confluence) assay, E0771; assay type: cell-based, mouse; conditions: E0771, erlotinib 30 μM or 50 μM, 48 hours, MTT, FIG. 10
# Experimental: (§1) Human and mouse breast cancer cells (1×10^4) were cultured in 10% FCS containing RPMI1640 medium on a 96-well flat bottom plate (Corning, Tewksbury, MA) at 37° C. for 24 hours, and then stimulated with IL-26 for 48 hours in the presence or absence of EGFR-TKI (gefitinib or erlotinib) at various concentrations, a signal inhibitor, and a neutralizing antibody. HUVECs were seeded in a 96-well flat bottom plate at 5×10^3 cells/well in a 2% FBS-containing EGM medium in which growth factors were reduced by half, and cultured at 37° C. for 12 hours. Thereafter, the medium was aspirated, and a recombinant human IL-26 dimer was adjusted to a final concentration of 10 ng/mL in a 2% FBS-containing EGM medium containing no growth factors, and added to the cells. The stimulation was started in the presence or absence of control human IgG and anti-human IL-26 antibodies, and the cells were cultured for 48 hours. Thereafter, a concentration of 20 μl or 1/10 of a 5 mg/ml MTT solution (Tetrazolium monosodium salt, WST-8) was added to each well, and the plate was allowed to stand for 1 hour. The absorbance at 450 nm/595 nm was measured using Microplate Reader (Bio-Rad, Hercules, CA) and data was analyzed with Microplate Manager 6 software (Bio-Rad).
# (§2) Human and mouse breast cancer cells (1×10^4) were cultured in RPMI1640 medium containing 10% FCS for 24 hours at 37° C. on a 96-well flat bottom plate (Corning), and then stimulated with IL-26 (30 ng/ml) in the presence or absence of various concentrations of gefitinib and a neutralizing antibody. Cell proliferation was measured as cell confluence using IncuCyte ZOOM (Essen Bioscience, Ann Arbor, MI).
# [2] = tested on: HCC70 cells; experiment: MTT assay / cell proliferation (confluence) assay, HCC70; assay type: cell-based, human; conditions: HCC70, erlotinib 30 μM or 50 μM, 48 hours, MTT, FIG. 10
# Experimental: as §1, §2
# [3] = tested on: MDA-MB468 cells; experiment: MTT assay / cell proliferation (confluence) assay, MDA-MB468; assay type: cell-based, human; conditions: MDA-MB-468, erlotinib 30 μM or 50 μM, 48 hours, MTT, FIG. 10
# Experimental: as §1, §2
# [4] = molecular target: T1, EphA3/IL-26 interaction; experiment: Immunofluorescence of rhIL-26-Alexa 488 and cell surface EphA3 on E0771 cells; assay type: cell-based, mouse; conditions: E0771, antibodies 10 μg/ml, FIGS. 19 and 20
# Experimental: E0771 and HCC70 cells (1×10^5) were cultured for 24 hours in RPMI1640 medium with 10% FCS on Lab-Tek chamber slides (Thermo Fisher Scientific). The cultured cells were stimulated with Alexa Fluor 488 labeled IL-26 (30 ng/ml) in the presence or absence of recombinant human and mouse EphA3-Ig for 1 hour. HCC70 cells were stimulated with IL-26 (30 ng/ml) in the presence or absence of gefitinib (40 μM), a signal inhibitor, and a neutralizing antibody for 24 hours. Subcutaneous tumor samples obtained from mice were fixed in 4% paraformaldehyde (Thermo Fisher Scientific) and embedded in OCT compound (Tissue-Tek (registered trademark), Sakura Finetek, Japan). Cells and slides were immunostained with each antibody and observed using a Zeiss inverted microscope and Axiovision 2.0 program (Carl Zeiss, Germany). The fluorescence intensity was quantified with Image-J software (NIH). The images were captured using a 100×400× objective.
# [5] = tested on: phosphorylation of AKT, JNK and EphA3 in HCC70 cells; experiment: Western blotting of phosphorylation in HCC70 cells; assay type: cell-based, human; conditions: gefitinib 40 μM
# Experimental: To analyze the phosphorylation of AKT, ERK, p38, JNK, STAT3, and EphA3, E0771 cells and HCC70 cells in 100 mm dishes were stimulated with IL-26 ([…]) and an anti-EphA3 polyclonal antibody (pAb) (10 μg/ml) for a specified period of time. After stimulation, the cells were lysed with a 2% protease inhibitor mixture (Sigma-Aldrich) and/or RIPA buffer added with 1×PhosSTOP (Roche Diagnostics, Tokyo, Japan), and a lysate was separated in a reduced state by SDS-PAGE (15 μg/lane). Immunoblots were performed using an anti-phosphorylated AKT antibody, an anti-phosphorylated ERK antibody, an anti-phosphorylated p38 antibody, an anti-phosphorylated JNK antibody, an anti-phosphorylated STAT3 antibody, and an anti-phosphorylated EphA3 antibody that recognize both human and mouse antigens. For reprobing, the membrane was immersed in a stripping buffer. After the stripping procedure, the membranes were re-probed with anti-pan-AKT, anti-pan-ERK, anti-pan-p38, anti-pan-JNK, anti-pan-STAT3, and anti-pan-EphA3 antibodies recognizing both human and mouse antigens. Images were taken using a C-Digit Blot scanner (MS Techno Systems, Inc., Japan).
# [6] = molecular target: T2, recombinant human IL-26/AK155 monomer, …; experiment: ELISA, human IL-26 monomer coated at 0.5 µg/ml, antibody diluted 2-fold from 5 µg/ml, HRP anti-human kappa detection
# Experimental: (§3) The antigen binding of purified Ch69-10-IgG1, Hu69-10A-IgG1, and Hu69-10B-IgG1 was analyzed by ELISA. ELISA plates were coated overnight at 4° C. with the addition of 0.5 μg/ml human IL-26 (recombinant human IL-26/AK155 monomer, Cat #1375-IL/CF, R&D Systems, Minneapolis, MN) at 100 μl/well in 0.2 M sodium carbonate buffer (pH 9.4). Wells were washed with the wash buffer and blocked with the ELISA buffer. Subsequently, 100 μl/well of test antibody (mouse 69-10, Ch69-10-IgG1, Hu69-10A-IgG1, or Hu69-10B-IgG1) serially diluted 2-fold in RPMI medium starting at 5 μg/ml was added to measure a binding with IL-26. After incubation at room temperature for 1 hour and washing the plates with a wash buffer, a 1/2,000-diluted HRP-conjugated goat anti-human kappa chain polyclonal antibody (Bethyl Laboratories) (for Ch69-10-IgG1, Hu69-10A-IgG1 and Hu69-10B-IgG1) or a 1/2,000-diluted HRP-labeled goat anti-mouse kappa chain polyclonal antibody (Bethyl Laboratories) (for mouse 69-10) in ELISA buffer was added at 100 μl/well to detect bound antibodies. After incubation at room temperature for 30 min and washing with the wash buffer, 100 μl/well of ABTS substrate (Sigma Aldrich) was added to start color development and 100 μl/well of 2% oxalic acid was added to stop the color development. The absorbance was measured at 405 nm.
# [7] = molecular target: T3, IL-26; experiment: ELISA of antigen binding to human IL-26; set-up: purchased R&D Systems 1375-IL/CF; conditions: plates coated with 0.5 μg/ml human IL-26 monomer; calculated using GraphPadPrism
# Experimental: as §3
# [8] = HCC70, Ephrin A5 200 ng/ml, FIG. 26 left
molecule,measurement,setting,value
"C#Cc1cccc(Nc2ncnc3cc(OCCOC)c(OCCOC)cc23)c1 [erlotinib, Erlotinib, reference compound]",cell proliferation under erlotinib,[1],inhibitory effect of erlotinib on cell proliferation
same,cell proliferation under erlotinib,[2],inhibitory effect of erlotinib on cell proliferation
same,cell proliferation under erlotinib,[3],inhibitory effect of erlotinib on cell proliferation
B1,inhibition of colocalization of IL-26 with EphA3 (EphA3/IL-26 interaction),[4],inhibited EphA3/IL-26 interaction
B2,phosphorylation of AKT,[5]; [8],slightly enhanced
same,phosphorylation of JNK and EphA3,[5]; [8],little effect
same,"dephosphorylation of EphA3, activation of AKT and JNK phosphorylation","[5]; HCC70, IL-26 30 ng/ml or Ephrin A5 200 ng/ml, FIG. 26",such changes were not observed
B3,EC50,[6],0.299 µg/mL
B4,"EC50 values (binding to human IL-26, ELISA)",[7],299 ng/mL
B5,EC50,[6],0.304 µg/mL
B6,EC50,[6],0.396 µg/mL

# Reference: patent US20230398116A1, “Agent for reversing resistance to anticancer drugs” (Y'S AC CO., LTD., priority 2020, published 2023)
